Results as given in patent US20120308513A1 (DENDREON, published 2012).

Legend:
Experiment in all cases: cell-based or functional assay
HLA-DRB1*040301 = HLA-DRB1*040301 (human)
HLA-DRB1*1102 = HLA-DRB1*1102 (human)
HLA-DRB1*0901 = HLA-DRB1*0901 (human)
HLA-DRB1*1302 = HLA-DRB1*1302 (human)
HLA-DRB1*110401 = HLA-DRB1*110401 (human)
HLA-DRB1*0401 = HLA-DRB1*0401 (human)
HLA-DRB1*080201 = HLA-DRB1*080201 (human)
HLA-DRB1*0301 = HLA-DRB1*0301 (human)
HLA-DRB1*0302 = HLA-DRB1*0302 (human)
HLA-DRB1*0102 = HLA-DRB1*0102 (human)
HLA-DRB1*040501 = HLA-DRB1*040501 (human)
HLA-DRB1*0101 = HLA-DRB1*0101 (human)
HLA-DRB1*1402 = HLA-DRB1*1402 (human)
HLA-DRB1*0701 = HLA-DRB1*0701 (human)
HLA-DRB1*1401 = HLA-DRB1*1401 (human)
HLA-DRB1*080101 = HLA-DRB1*080101 (human)
HLA-DRB1*1101 = HLA-DRB1*1101 (human)
HLA-DRB1*1301 = HLA-DRB1*1301 (human)
HLA-DRB1*1103 = HLA-DRB1*1103 (human)
HLA-DRB1*1104 = HLA-DRB1*1104 (human)
HLA-DRB1*0103 = HLA-DRB1*0103 (human)
HLA-DRB1*0402 = HLA-DRB1*0402 (human)
HLA-DRB1*1503 = HLA-DRB1*1503 (human)
HLA-DRB1*160201 = HLA-DRB1*160201 (human)
HLA-DRB1*1201 = HLA-DRB1*1201 (human)

Measured: IFNγ production by T cell clone HER500.23c21, HERp270-284 at 1 µg/mL presented by the homozygous EBV-LcL line (ELISA)

ALVTYNTDTFESMPN [HER500 peptide #63 (HERp270-284)]
> 4000 pg/mL: HLA-DRB1*040301 | HLA-DRB1*1102 | HLA-DRB1*0901 | HLA-DRB1*1302 | HLA-DRB1*110401 | HLA-DRB1*0401 | HLA-DRB1*080201 | HLA-DRB1*0301 | HLA-DRB1*0302 | HLA-DRB1*0102 | HLA-DRB1*040501 | HLA-DRB1*0101 | HLA-DRB1*1402 | HLA-DRB1*0701 | HLA-DRB1*1401 | HLA-DRB1*080101 | HLA-DRB1*1101 | HLA-DRB1*1301 | HLA-DRB1*1103 | HLA-DRB1*1104 | HLA-DRB1*0103 | HLA-DRB1*0402 | HLA-DRB1*1503 | HLA-DRB1*160201 | HLA-DRB1*1201
